{"source": "patent US20030219740", "proteins": {"B1": {"name": "CATX-2 protein (enzyme)", "chain": "MNSRPRRRDIDRLEHLHLTEFGLKLGQKIFLLNKRDFILFLSLF"}}, "key": {"[1]": {"biological_target": "carboxyl terminal APC fragment (UniProt P25054)", "sequence (P25054 2168-2843)": "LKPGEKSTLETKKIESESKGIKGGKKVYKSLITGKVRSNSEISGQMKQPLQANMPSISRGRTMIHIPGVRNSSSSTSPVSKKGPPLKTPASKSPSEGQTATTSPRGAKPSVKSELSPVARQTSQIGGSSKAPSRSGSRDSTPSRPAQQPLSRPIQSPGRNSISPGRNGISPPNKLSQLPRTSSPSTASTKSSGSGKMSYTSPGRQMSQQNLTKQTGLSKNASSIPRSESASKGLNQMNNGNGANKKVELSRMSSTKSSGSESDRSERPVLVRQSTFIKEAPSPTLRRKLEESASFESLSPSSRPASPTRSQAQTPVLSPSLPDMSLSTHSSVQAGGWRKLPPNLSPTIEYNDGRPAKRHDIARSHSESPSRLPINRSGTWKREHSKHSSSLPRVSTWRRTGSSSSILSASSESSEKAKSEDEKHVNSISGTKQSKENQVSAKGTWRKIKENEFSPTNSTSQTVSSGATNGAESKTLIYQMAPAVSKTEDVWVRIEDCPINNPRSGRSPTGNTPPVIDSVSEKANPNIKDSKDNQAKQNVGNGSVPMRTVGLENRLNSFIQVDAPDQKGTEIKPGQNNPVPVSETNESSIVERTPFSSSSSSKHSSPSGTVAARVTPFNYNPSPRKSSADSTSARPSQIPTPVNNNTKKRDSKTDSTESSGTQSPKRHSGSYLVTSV"}, "[2]": {"test_system": "histone"}, "[3]": {"test_system": "poly-threonine"}}}
{"protein": "B1", "values": [{"measurement": "phosphorylation in vitro (γ-32P)", "setting": "[1]", "result": "CATX-2 protein could phosphorylate histone 5 µg, poly-threonine 5 µg, and COOH-APC fragment (1-5 µg)"}, {"measurement": "phosphorylation in vitro (γ-32P)", "setting": "[2]", "result": "CATX-2 protein could phosphorylate histone 5 µg"}, {"measurement": "phosphorylation in vitro (γ-32P)", "setting": "[3]", "result": "CATX-2 protein could phosphorylate histone 5 µg, poly-threonine 5 µg"}]}
